This data set is described as follows: yeast display, Sf9 membrane polyspecificity reagent, FACS + sequencing; frameworks hold sequencing errors. In short, it runs like this: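 A nanobody's polyreactivity label depends on the gate it was sorted from. Yeast display cells were stained with 10% biotinylated, detergent-solubilized Sf9 membrane reagent for 1 hour at 4 °C, enriched on streptavidin microbeads and sorted by FACS. The low and high (top ~1%) gates were set on anti-HA fluorescence for expression and streptavidin fluorescence for reagent binding.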
For the sequence “QVQLVESGGGLVQAGGSLRLSCAASGRIYRENAMGWYRQAPGKEREFVAVISISDASTYYADSVKGRFTISRDNAKNTVYLQMNSLKPVDTAVYYCAADLTDFLYVSSDFWGQGTQVTVSS”, the “polyreactivity (PSR sort gate)” value was “low polyreactivity”.

On to “QVQLVESGGGLVQAGGSLRLSCAASGRIYTMGWYRQAPGKERELVAAISKSGGSTSYADSVKGRFTISRDNAKNTVYLQMNSLKPEDTAVYYCAALHYGRYRMDYWGQGTQVTVSS”, for which the “polyreactivity (PSR sort gate)” value is “high polyreactivity”.

With “QVQLVESGGGLVQAGGSLRLSCAASGRLFKDNAMGGYRQAPGKERELVATIDSGGDTNYADSVKGRFTISRDNAKNTVYLQMNSLKPEDTAVYYCNTAGRGGIPSGFDYWGQGTQVTVSS”, the “polyreactivity (PSR sort gate)” value is “low polyreactivity”.

Regarding “QVQLVESGGGLVQAGGSLRLSCAASGRLFKRYNMGWYRQGPGKDRELVAAIRSGGSTNYADSVKGRFTISRDNAKNTVYLPMNSLKPEDTAVYYCAARSTAYRGGSYAYDYWGQGTQVTVSS”, the “polyreactivity (PSR sort gate)” value was “high polyreactivity”.

Regarding “QVQLVESGGGLVQAGGSLRLSCAASGRLFSRYAMGWNRQAPGQQRELVAAITRGGGSTYYADSVKGRFTISRDNAKNTVYLQMNSLKPEDTAVYYCNKASVQYYGDVYWGQGTQVTVSS”, the “polyreactivity (PSR sort gate)” value is on record as “high polyreactivity”.

Turning to “QVQLVESGGGLVQAGGSLRLSCAASGRLFYYNAMGWYRQAPGKERELVAAISWSGGSTYYADSVKGRFTISRDNAKNTVYLQMNSLKPEDTAVYYCAVDVYGYTPRPTREPLIYEYWGQGTQVTVSS”, the “polyreactivity (PSR sort gate)” value is “low polyreactivity”.

As to “QVQLVESGGGLVQAGGSLRLSCAASGRLLGFNVMGWYRQAPGKERELVAAITTSGGSTYYADSVKGRFTISRDNAKNTVYLQMHSLKPEDTAVYYCAAVKVQITLLHGDDYWGQGTQVTVSS”, the “polyreactivity (PSR sort gate)” value is listed as “high polyreactivity”.

Take “QVQLVESGGGLVQAGGSLRLSCAASGRNFFRYAMGWYRQAPGKERELVAAISRSGGRTYYADSVKGRCTLSRDNAKNTVFLQMNSLNREDTAVYYCAVRYRQYSQTVASDYGYWGPGTQVTVSS”: the “polyreactivity (PSR sort gate)” value is on record as “high polyreactivity”.

With “QVQLVESGGGLVQAGGSLRLSCAASGRNFGYNAMGWYRQAPGKERELVAAITTSGGSTYYADSVKGRFTISRDNAKNTVYLQMNSLKPEDTAVYYCARDSLQVLYPYASDDSWGQGTQVTVSS”, the “polyreactivity (PSR sort gate)” value is “low polyreactivity”.

“QVQLVESGGGLVQAGGSLRLSCAASGRNFKPNVMGWYRQAPGKERELVAAISWSGGASTYYADSVKGRFTISRDNAKNTVYLQMNSLKREDTAVYYCNAAKRNRYDYWGQGTQVTVSS”: the “polyreactivity (PSR sort gate)” value was “low polyreactivity”.

Turning to “QVQLVESGGGLVQAGGSLRLSCAASGRNFKYYTMGWYRQAPGKETELVAAISSGGRTKYADSVKGRFTISRDNAKNTVYLQMNSLKPEDTAVYYCNAGYPYPFYRSSQTGGYDYWGQGTQVTVSS”, the “polyreactivity (PSR sort gate)” value was “high polyreactivity”.

“QVQLVESGGGLVQAGGSLRLSCAASGRNFNKNAMGWYRQAPGKERELVAAITDRGGSTNYADSVKGRFTISRDNAKNTVYLQMNSLKPEDTAVYYCNTGRKLVYRYPGYDYWGQGTQVTVSS”: the “polyreactivity (PSR sort gate)” value was “low polyreactivity”.

As for “QVQLVESGGGLVQAGGSLRLSCAASGRNFNVKAMGWYIQAPGKESELVAGITRGGITTYADSVKGRFTISRDNAKNSVYLQMYSLKPVDTAVYYCAAVGWGSRYDTWYYLYDYWGQGSQVTVSS”, the “polyreactivity (PSR sort gate)” value is listed as “high polyreactivity”.

Consider “QVQLVESGGGLVQAGGSLRLSCAASGRNFPSYAMGWYRQAPGKERELVAAISFSGASTYYADSVKGRFTFSRDNAKNTVYLQMNSLKPEDTAVYYCNASGVGADVQWSWEEGDYWGQGTQVTVSS”, for which the “polyreactivity (PSR sort gate)” value is “low polyreactivity”.

Regarding “QVQLVESGGGLVQAGGSLRLSCAASGRNFPVNAMGWYRQAPGKERELVATISYSGSSTYYADSVKARFTISRDNAKNTVYLQMNSLKPEDTAVYYCNADAESFDDGYWGQGTEVTVSS”, the “polyreactivity (PSR sort gate)” value was “low polyreactivity”.

In the case of “QVQLVESGGGLVQAGGSLRLSCAASGRNFPYYAMGWYRQAPGKERELVATISSSGGSTYYADSVKGRFTISRDNAKNTVYLQMNSLKPEDTAVYYCAADWYGYRQFHGYYWGQGTQVTVSS”, the “polyreactivity (PSR sort gate)” value is “high polyreactivity”.

Turning to “QVQLVESGGGLVQAGGSLRLSCAASGRNFRKYTMGWYRQAPGKERELVATISNSGVSTYYADSVKGRFTISRDYAKNTVYLQMNSLKPEDTAVYYCSKEWLYYNGFFRSYYWGQGTQVNVSS”, the “polyreactivity (PSR sort gate)” value is “high polyreactivity”.

As for “QVQLVESGGGLVQAGGSLRLSCAASGRNFRYNAMGWYRQAPGKERELVAAISSGDRTNYADSVKGRFTISRDNAKNTVYLQKKSLKPVDTAVYYCAAPTDSYYEFDYWGQGTQGTVSS”, the “polyreactivity (PSR sort gate)” value is reported as “low polyreactivity”.

With “QVQLVESGGGLVQAGGSLRLSCAASGRNFSRYAMGWYRQAPGKERELVAAISRRGGSTYYADSVKGRFTISRDNAKNTVYLQMNSLKPEDTAVYFCAKYPSAYVDSDVTYDMDYWGQGTQVTVSS”, the “polyreactivity (PSR sort gate)” value is reported as “low polyreactivity”.

For the sequence “QVQLVESGGGLVQAGGSLRLSCAASGRNFYFYAMGWYRQAPGKEREFVATISSTGGSTYYADSVKGRFTISRDNAKNTVYLQMNSLKPEDTAVYYCAVRGWYPGFRYDYWGQGTQVTVSS”, the “polyreactivity (PSR sort gate)” value is “low polyreactivity”.

On to “QVQLVESGGGLVQAGGSLRLSCAASGRNFYRYGMGWYRQAPGKERELVAAITYGGGSTYADSVKGRFTISRDNAKNTVYLQMNSLKPEDTAVYYCNARSRYRHYGFDYWGQGTQVTVSS”, for which the “polyreactivity (PSR sort gate)” value is listed as “high polyreactivity”.

With “QVQLVESGGGLVQAGGSLRLSCAASGRNLEYYAMGWYRQAPGQERELVATITSRGDTTHYADSVKGRFTISRDNAKNTVYLQMNSLKPEDTAVYYCAAAYVEYTPYRWYGDDYWGQGTQVTVSS”, the “polyreactivity (PSR sort gate)” value was “low polyreactivity”.

Regarding “QVQLVESGGGLVQAGGSLRLSCAASGRSFDRNAMGLYRQAPGKERELVADITSIGTRTYYADSVKGRFTISRDNAKNSVYLQMNSLKPEDTAVYYCAADYYYSYWYWFSSSYGYWGQGTQVTVSS”, the “polyreactivity (PSR sort gate)” value is listed as “high polyreactivity”.

Regarding “QVQLVESGGGLVQAGGSLRLSCAASGRSFEVYVMGWYRQAPGKERELVAAISTGGSTYYADSVKGRFTISRDNAKNTVYLQMNSLKPEDTAVYYCAAKRTGNGYPRSGYSRYEYWGQGTQVTVSS”, the “polyreactivity (PSR sort gate)” value is reported as “high polyreactivity”.

For the sequence “QVQLVESGGGLVQAGGSLRLSCAASGRSFGNYVMGWYRQAPGKERELVAAISRSGGSTYYADSVKGRFTISRDNAKNIVYLQMNSLKPEDTAVYYCNTVTTYDVEYWGQGTQVTVSS”, the “polyreactivity (PSR sort gate)” value is listed as “high polyreactivity”.

As to “QVQLVESGGGLVQAGGSLRLSCAASGRSFLGYPMGWYRQAARKERELVAAISSSGTSTYYADSVKGRFTISRDNAQNTVYLQMNSLKPEETSVYYCAKYAYSYYPPAYDYWGQGTKVTVSS”, the “polyreactivity (PSR sort gate)” value was “high polyreactivity”.

As for “QVQLVESGGGLVQAGGSLRLSCAASGRSFRDYGMGWYRQAPGKERELVAVITWGGGSTYYADSVKGRFTISRDNAKNTVYLQMNSLKPEDTAVYYCAKEYHYYYWGQGTQVTVSS”, the “polyreactivity (PSR sort gate)” value is given as “low polyreactivity”.

“QVQLVESGGGLVQAGGSLRLSCAASGRSFSIYAMGCYRQAPGKERELVASISRGISTNYADSVKGRFTISRDNAKNTVYLQMNSLKPEDTAVYYCASDLFSNYRYWGQGTQVTVSS”: the “polyreactivity (PSR sort gate)” value is recorded as “high polyreactivity”.

Turning to “QVQLVESGGGLVQAGGSLRLSCAASGRSFYFNAMGWYRQAPGKEWELVAVINSSGSTDYADSVKGRFTISRDNAKNTVYLQMNSLKPEDTAVYYCAAEVTPSGYGYWGQGTQVTVSS”, the “polyreactivity (PSR sort gate)” value is “low polyreactivity”.

Regarding “QVQLVESGGGLVQAGGSLRLSCAASGRSLEHNAMGWYSQAPGKERELVAAISGSGGTTYYADSVKGRFTISRDNAKNTVYLQMNSLKPEDTAVYYCNAKLYRSFDYWGQGTQVTVSS”, the “polyreactivity (PSR sort gate)” value is on record as “low polyreactivity”.

On to “QVQLVESGGGLVQAGGSLRLSCAASGRTCKPYAMGWYRQAPGKEREVVAVITSNGSSTYYADSVKGRFTISRDNAKNTVYLQMNSLKPEDTAVYYCATKLTYTLTSGAYAYDYWGQGTQVTVSS”, for which the “polyreactivity (PSR sort gate)” value is reported as “low polyreactivity”.

As to “QVQLVESGGGLVQAGGSLRLSCAASGRTCKYYAMGWYRQAPGKERELVATITWSGTSTNNADSVKGRFTISRDNAKNTVYLQMNSLKPEETAVYYCAARSKRRNYDYWGQGTQVTVSS”, the “polyreactivity (PSR sort gate)” value was “high polyreactivity”.

For the sequence “QVQLVESGGGLVQAGGSLRLSCAASGRTFAAYAMGWYRQAPGKERELVAAITSGGGTYYADSVKGRFTISRDNAKNTVYLQMNSLKPEDTAVYYCAADYISVYGYEYYYWGQGTQVTVSS”, the “polyreactivity (PSR sort gate)” value is reported as “high polyreactivity”.

Regarding “QVQLVESGGGLVQAGGSLRLSCAASGRTFAFNTMGWYRQAPGKERELVDAIRFSAGSTYYADSVKGRFTISRDNAKNTVYLQMNSLKPEDTAVYYCAASYGDRGGWGPGVDYWGQGTQVTVSS”, the “polyreactivity (PSR sort gate)” value is on record as “low polyreactivity”.

On to “QVQLVESGGGLVQAGGSLRLSCAASGRTFAFYTLGWYRQAPGKERELVAAITRNGSTSYADSVKGRFTISRDNAKNTVFLQMNRLKPEDTAVYYCATVGYPYTLWHQMDYWGQGTQVTVSS”, for which the “polyreactivity (PSR sort gate)” value is “low polyreactivity”.

As for “QVQLVESGGGLVQAGGSLRLSCAASGRTFAFYTMGWYRQAPGKEREFVAASSWSGGSTHYADSVKGRFTISRDNEKNTVYLQMNSLTQEYTAVYYCAAGPFYRFTDGRDKTLDYWGQGNQVTVSS”, the “polyreactivity (PSR sort gate)” value was “high polyreactivity”.

For the sequence “QVQLVESGGGLVQAGGSLRLSCAASGRTFAGNAMGWYRQAPGKERELVAAISQGGGSTYYADSVKGRFTFSRDNATNSVYLQMNRLNPDDTAVYYCAAEIPRRWASFATLWYDYWGQGTQVTVSS”, the “polyreactivity (PSR sort gate)” value is reported as “low polyreactivity”.

“QVQLVESGGGLVQAGGSLRLSCAASGRTFAGNAMGWYRQAPGKERELVASISSSAGRTYYADSVKGRFTISRDNAKNTVYLQMNSLKPEDTAVDYCAARGGYVSTWTRFSKYNYWGQGTQVTVSS”: the “polyreactivity (PSR sort gate)” value was “high polyreactivity”.

On to “QVQLVESGGGLVQAGGSLRLSCAASGRTFAGNAMGWYRQAPGKERELVATITSRGTITYYADSVKGRFTISRDNAKNTVYLQMHSLKPEDTAVSYCNVRYYFPRYQQPYQLNEYYYWGQGTQVTVSS”, for which the “polyreactivity (PSR sort gate)” value was “low polyreactivity”.

On to “QVQLVESGGGLVQAGGSLRLSCAASGRTFAIYAMGWYRPAPGKEREFVAAISWSGGDTYYADSVKGRFTISRDNAKNTVYLQMNSLKPEDTAVYYCAARDYDYEGRDLQYELDYWGQGTQVTVSS”, for which the “polyreactivity (PSR sort gate)” value is listed as “low polyreactivity”.
